What all share (assay): two-electrode voltage clamp, Xenopus oocytes, Michaelis-Menten fit of transport current
Background: In two-electrode clamp one electrode senses voltage and the other passes current.

Substrate in series [1]: NCC(=O)N[C@@H](CCC(N)=O)C(=O)O
In kind it is cell-based, Danio rerio. To be noted: pH 6.5, -160 mV, apparent transport affinity, GQ Km values 'in part published previously'. The source says: (§1) two-electrode voltage clamp, Xenopus oocytes, Michaelis-Menten fit of transport current on zfPEPT2

Substrate in series [2]: Cc1c(CC(=O)NCCCC[C@H](NC(=O)CCN)C(=O)O)c(=O)oc2cc(N)ccc12
In kind it is cell-based, Danio rerio. The note with it: pH 6.5, -160 mV, 0.05-2 mmol/L range, apparent transport affinity.
Excerpt: as §1

Substrate in series [3]: NCC(=O)N[C@@H](CCC(N)=O)C(=O)O
In kind it is cell-based, Oryctolagus cuniculus. The note with it: pH 6.5, -160 mV, apparent transport affinity, GQ Km values 'in part published previously'. The source says: (§2) two-electrode voltage clamp, Xenopus oocytes, Michaelis-Menten fit of transport current on rPEPT2

Substrate in series [4]: Cc1c(CC(=O)NCCCC[C@H](NC(=O)CCN)C(=O)O)c(=O)oc2cc(N)ccc12
In kind it is cell-based, Oryctolagus cuniculus. To be noted: pH 6.5, -160 mV, 0.05-2 mmol/L range, apparent transport affinity.
Excerpt: as §2

Substrate in series [5]: NCC(=O)N[C@@H](CCC(N)=O)C(=O)O
In kind it is cell-based, Caenorhabditis elegans. The note with it: pH 6.5, -60 mV, apparent transport affinity, GQ Km values 'in part published previously'. The text has this: (§3) two-electrode voltage clamp, Xenopus oocytes, Michaelis-Menten fit of transport current on cePEPT1

Substrate in series [6]: Cc1c(CC(=O)NCCCC[C@H](NC(=O)CCN)C(=O)O)c(=O)oc2cc(N)ccc12
In kind it is cell-based, Caenorhabditis elegans. The note with it: pH 6.5, -60 mV, 0.5-4 mmol/L range, apparent transport affinity.
Excerpt: as §3

B1: zfPEPT2 (Danio rerio) (protein)
chain: MGKMKDKDVDAEKYEKAQRSPKLCGTNYPVSIAFIVVNEFCERFSYYGMKAVLTLYFMNYLHWDKNLSTAIYHAFSGLCYFTPLLGALIADSWLGKFKTIIYLSIVYVIGHVVKSVGAIPDVGDSTVHIALSMVGLGLIALGTGGIKPCVAAFGGDQFDEDNIDERRKFFSIFYMSINAGSVLSTIITPILRGDVQCFGGDCYALAFGVPAALMVIALVVFISGSGLYKKSPPEGNVLVRVCKCIGFAISNRWTNSKKSPKRSHWLDWAEEKYSKRLIQEIKMVCRVLVLYIPLPMFWALFDQQGSRWTLQATRMNMDFGGGFIIKPDQMQMLNALLILVFIPIFDMGIYPLVGLCRIKLTPLKKMATGMILAALAFCAATAVEVYVIKTVVEPPPAKESLVQVYNLMDSDVTVQFPAHNVFSEPLKPYEEPSGYSSLPLTGESQLQNVVVSHNGMNYQCRLTFTERMAYSLLLHPTAQHNGSVCNLVKDHITKSETGAAYIRFINTHTENINVTVGTEEVHASANYGISRNISVPRGEYNKAVCVTDTKEYEINLGLLDFGAFYTVILSEAGNNLAVKKMEDIQANNIHIGWQIPQYVFLTAGEVMFSITGLEFSYSQAPASMKSVLQAGWLMTVAFGNVIVLIVAEGAGMEQWVEFLLFAALLVAVSIIFSIMAYFYTYVDPDQLDKLFKEDGDGGKVESSKKDELSLGDMPKQTKM
notes: full-length cRNA expressed in Xenopus laevis oocytes
As for B1, the Km (commonly the substrate concentration at which the rate is half of its maximum) in series [1] was 79 ± 12 µM; in series [2], 296 ± 26 µM.

B2: rPEPT2 (Oryctolagus cuniculus) (protein)
chain: MNPFQQNESKETLFSPVSTEETPPRLSSPAKKTPPKICGSNYPLSIAFIVVNEFCERFSYYGMKAVLTLYFLYFLHWNEDTSTSVYHAFSSLCYFTPILGAAIADSWLGKFKTIIYLSLVNVLGHVIKSLSAFPILGGKVVHTVLSLVGLCLIALGTGGIKPCVAAFGGDQFEEKHAEERTRYFSGFYLAINAGSLISTFITPMLRGDVQCFGEDCYALAFGVPGLLMVIALVVFAMGSKMYKKPPPEGNIVAQVVKCIWFAISNRFKNRSEDIPKRQHWLDWAAEKYPKQLIMDVKTLTRVLFLYIPLPMFWALLDQQGSRWTLQATKMNGNLGFFVLQPDQMQVLNPLLVLIFIPLFDLVIYRLISKCGINFTSLRKMAVGMVLACLAFAAAATVEIKINEMAPPQPGSQEILLQVLNLADDEVKLTVLGNNNNSLLADSIKSFQKTPHYSKIHLNTKSQDFYFHLKYHNLSIYTEHSVEERNWYSLIIREDGKSISSIMVKDMENETTYGMTAIRFINTLQENVNISLGTDISLNVGENYGVSAYRTVQRGEYPAVHCKTEDKDFSLNLGLLDFGASYLFVITNSTKQGLQAWKMEDIPANKVSIAWQLPQYALVTAGEVMFSVTGLEFSYSQAPSSMKSVLQAAWLLTVAIGNIIVLVVAQFSGLVQWAEFVLFSCLLLVVCLIFSIMGYYYIPIKSEDIQGPEDKQIPHMQGNMINLETKKTKL
notes: full-length (729 residues) cRNA expressed in Xenopus laevis oocytes
Consider B2, for which the Km in series [3] is 150 ± 33 µM; in series [4], 290 ± 27 µM.

B3: cePEPT1 (Caenorhabditis elegans) (protein)
chain: MGYSESRSESVSSKGKTSYGHELETVPLPEKKIYTTWPDMIRHWPKTTLCIVSNEFCERFSYYGMRTVLTFYLLNVLKFTDSQSTIFFNGFTVLCYTTPLLGSIVADGYIGKFWTIFSVSILYAIGQVVLALASTKNFQSSVHPWMDLSGLLIIAFGTGGIKPCVSAFGGDQFELGQERMLSLFFSMFYFSINAGSMISTFISPIFRSQPCLGQDSCYPMAFGIPAILMIVATLVFMGGSFWYKKNPPKDNVFGEVSRLMFRAVGNKMKSGSTPKEHWLLHYLTTHDCALDAKCLELQAEKRNKNLCQKKKFIDDVRSLLRVLVMFLPVPMFWALYDQQGSVWLIQAIQMDCRLSDTLLLLPDQMQTLNAVLILLFIPLFQVIIYPVAAKCVRLTPLRKMVTGGLLASLAFLITGFVQLQVNTTLPTLPEEGEASISFWNQFETDCTITVMSGIHKRVLPHDKYLHEDKKNKSGIYNLFTTKSPAKGNGDWTLTYDLSYDGACGDTSKLEKTVKVTAKSKKIIYVGVGSFGYYQNTANTDKPTDGTGEFSMGIVTVFNSSYGGNFAMCRQNTSDFDVNHPCNPRHPADFYFWETDYNSHTDDRDQNATITGSLSSQPAVTYKQKSVKPGYWQLYYLLNTPKDVDRQTYNKTATLVAPTNYGFHRVKQGGVFIYALTGTYENPKIHELQIVQSNSVSILWQIPQIVVITAAEILFSITGYEFAYSQSAPSMKALVQALWLLTTAAGDSIIVVITILNLFENMAVEFFVYAAAMFVVIAIFALLSIFYYTYNYYTTDEEDGEIGVDDEEEIEDHNPRYSIDNKGFHPDEKDTFDMHF
notes: as for B1
Regarding B3, the Km in series [5] turned out to be 7450 ± 610 µM; in series [6], 4640 ± 1670 µM.

The record behind these values is article PMC3970736, “Peptide transporter isoforms are discriminated by the fluorophore‐conjugated dipeptides β‐Ala‐ and d‐Ala‐Lys‐N‐7‐amino‐4‐methylcoumarin‐3‐acetic acid” (Physiological Reports, 2013).
